We go through 6 molecules from patent US5079230A, “Stable bioactive somatotropins” (Pitman-Moore, Inc., priority 1988, dated 1992).

Data set [1] deals with hypophysectomized (hypox) rats. Put plainly: body weight gain in hypophysectomized (hypox) rats. The settings on record: for % Weight Gain Mean: hypox rats, 24 ug pST/day for 9 days, weight gain over a 10 day period; for % Relative Bioactivity: relative to the pituitary derived pST standard tested at similar concentration, 24 ug. In kind it is in vivo, rat. How it is done:
The relative bioactivity and biopotency of non-derivatized rpST and small-loop derivatized rpST prepared according to the method of Example 1 was determined by measuring the body weight gain in hypophysectomized (hypox) rats. Four (4) groups of 10 hypox rats per group received 24 μg pST/day of pST standard, dialyzed Zn-rpST, small-loop derivatized Zn-rpST, or non-derivatized Zn-rpSt for 9 days. Rats were monitored daily and their body weight gains recorded over a 10 day period. The weight gain was measured and the percent relative bioactivity calculated as a percent of standard.

The target in data set [2] is T1, pregnant rabbit liver membranes (Oryctolagus cuniculus, UniProt P19941).
T1 construct: pregnant rabbit liver membranes; from tissue; host or cells: liver membranes of pregnant rabbits
T1 sequence (P19941 19-638): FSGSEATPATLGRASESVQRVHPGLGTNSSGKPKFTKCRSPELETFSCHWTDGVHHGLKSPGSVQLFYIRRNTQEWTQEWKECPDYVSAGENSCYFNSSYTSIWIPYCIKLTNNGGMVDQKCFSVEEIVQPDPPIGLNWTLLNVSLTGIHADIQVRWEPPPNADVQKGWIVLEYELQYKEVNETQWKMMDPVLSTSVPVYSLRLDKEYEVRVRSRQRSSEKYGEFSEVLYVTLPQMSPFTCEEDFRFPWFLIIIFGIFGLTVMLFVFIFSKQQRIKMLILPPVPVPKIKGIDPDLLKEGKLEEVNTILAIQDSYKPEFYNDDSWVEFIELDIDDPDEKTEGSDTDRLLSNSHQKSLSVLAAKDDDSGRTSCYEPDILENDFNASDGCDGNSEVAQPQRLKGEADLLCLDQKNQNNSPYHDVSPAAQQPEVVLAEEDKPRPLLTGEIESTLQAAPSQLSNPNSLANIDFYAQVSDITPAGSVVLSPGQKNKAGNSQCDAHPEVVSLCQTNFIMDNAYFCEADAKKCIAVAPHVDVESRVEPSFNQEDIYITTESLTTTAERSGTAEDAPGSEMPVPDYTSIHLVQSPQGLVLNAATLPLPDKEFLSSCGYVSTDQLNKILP
In words: pST binding assay using pregnant rabbit liver membranes and 125I-labelled rpST. As to conditions: calculated from the IC-50 data relative to the standard. How it is done: The bioactivity of non-derivatized rpST and small-loop derivatized rpST prepared according to the method of Example 1 was determined by pST binding assays using pregnant rabbit liver membranes and ^125 I-labelled rpST. A modified version of the assay disclosed in Tsushima et al., Radioreceptor Assay for Growth Hormone, J. Clin. Endocrinol. Metab., 37:334-337 (1973) was used: The rpST sample was incubated at 30° C. for 3.5 hours with 16,000 cpm ^125 I-rpST. The range of concentration used for the displacement curve of the rpST standard and small-loop derivatized rpST was between 0.38-200 ng/ml. Additional information for the pST binding assay are described in Tsushima et al., Radioreceptor Assay for Growth Hormone, J. Clin. Endocrinol. Metab., 37:334-337 (1973).

A further data set has as its target T2, porcine liver membranes (Sus scrofa, UniProt P19756).
T2 construct: porcine liver membranes; from tissue; host or cells: porcine liver membranes
T2 sequence (P19756 19-638): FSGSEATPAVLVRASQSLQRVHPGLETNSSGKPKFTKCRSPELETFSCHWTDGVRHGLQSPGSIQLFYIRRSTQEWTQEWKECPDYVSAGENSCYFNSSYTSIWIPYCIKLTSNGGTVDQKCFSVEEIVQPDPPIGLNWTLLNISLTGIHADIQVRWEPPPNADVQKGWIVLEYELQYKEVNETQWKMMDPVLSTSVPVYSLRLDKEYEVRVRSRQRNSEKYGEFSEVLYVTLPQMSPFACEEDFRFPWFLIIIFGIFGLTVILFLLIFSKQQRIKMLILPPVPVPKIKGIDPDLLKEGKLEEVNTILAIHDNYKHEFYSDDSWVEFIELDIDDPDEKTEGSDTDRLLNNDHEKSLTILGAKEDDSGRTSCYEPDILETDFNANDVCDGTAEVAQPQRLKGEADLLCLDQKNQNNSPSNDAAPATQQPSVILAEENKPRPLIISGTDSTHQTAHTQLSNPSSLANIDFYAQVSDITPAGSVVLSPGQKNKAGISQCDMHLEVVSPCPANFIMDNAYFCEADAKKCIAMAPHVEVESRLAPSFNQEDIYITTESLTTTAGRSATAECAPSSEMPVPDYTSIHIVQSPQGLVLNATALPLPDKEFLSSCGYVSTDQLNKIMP
Put plainly: binding activity in porcine liver membranes (homologous somatotropin radioreceptor assay). The settings on record: relative to unmodified (non-derivatized) rpST = 100%. How it is done:
The bioactivity of non-derivatized rpST and small-loop derivatized rpST prepared according to the method of Example 1 was determined using binding activity in porcine liver membranes according to a modification of the method in Haro et al., Homologous Somatotropin Radio Receptor Assay Utilizing Recombinant Bovine Growth Hormone, Mol. Cell Endocrinol., 38:109-116 (1985).

Data set [3] is described as follows: solution stability, rpST monomer by Superose-12 size-exclusion chromatography. In kind it is physicochemical. As to conditions: 8 mg/ml, carbonate buffer pH 9.8 or phosphate buffered saline pH 7.4, 37° C., 0.6-120 days; compared with non-derivatized rpST. As to the method:
8 mg/ml non-derivatized rpST and small-loop derivatized rpST (prepared with IA according to Example 1) solutions containing 0.5% sodium azide were prepared in either 46 mM carbonate buffer (pH 9.8) or phosphate buffered saline (pH 7.4). Aliquots of 1.25 ml were incubated in Eppendorf Microcentrifuge tubes for 0.6, 4.6, 8.8, 22 and 120 days at 37° C.
At the end of each incubation period the aliquots were removed and analyzed for rpST monomer using Superose-12 size-exclusion chromatography with a mobile phase of 46 mM carbonate buffer (pH 9.8).
(In general: SEC sorts molecules by how far they enter the pores of the column.)

Data set [4] is described as follows: stability in the wetted state, rpST monomer recovery. It is filed as physicochemical. The settings on record: 5 mg wetted with Tris-HCl pH 7.4 or carbonate buffer pH 9.8, 14 days at 37° C.; compared with non-derivatized rpST. How it is done:
Non-derivatized rpST and small-loop derivatized rpST (prepared with IA according to Example 1) containing 5 mg/ml were dialyzed against 0.46 mM carbonate buffer an lyophilized to produce dry rpST samples for further testing. Five mg of dry small-loop derivatized and non-derivatized rpST were wetted with 0.01 ml of 50 mM Tris-HCl, pH 7.4, 0.05% sodium azide or 46 mM carbonate buffer, pH 9.8, 0.05% sodium azide. The paste was allowed to incubate for 14 days at 37° C. At the end of this time, the rpST was diluted to a final concentration of about 1.8 mg/ml in 46 mM carbonate buffer, pH 9.8, sonicated in a Branisonic 220 sonicator for several minutes, and centrifuged at 15,000×G for 5 minutes. The supernatant was analyzed for monomer content by the chromatographic procedure described in Example 6.

B1: pST Standard: pST standard of the hypox rat assay; footnote mentions pituitary derived pST standard (protein, UniProt P01248 27-216, looked up)
Somatotropin: FPAMPLSSLFANAVLRAQHLHQLAADTYKEFERAYIPEGQRYSIQNAQAAFCFSETIPAPTGKDEAQQRSDVELLRFSLLLIQSWLGPVQFLSRVFTNSLVFGTSDRVYEKLKDLEEGIQALMRELEDGSPRAGQILKQTYDKFDTNLRSDDALLKNYGLLSCFKKDLHKAETYLRVMKCRRFVESSCAF
In the case of B1, in data set [1] (at equivalent dose when the ST was dissolved in 9.5 high pH buffer), the relative bioactivity is on record as 51%. For the same molecule, in data set [1], the “% Weight Gain Mean” value was 23.1% and the “% Relative Bioactivity” value amounted to 55%.

B2: small-loop derivatized rpST: recombinant porcine somatotropin with small-loop disulfide reduced with 2-mercaptoethanol and sulfhydryls carbamidomethylated with iodoacetamide (Example 1) (protein, UniProt P01248 27-216, looked up)
Somatotropin: B1 Somatotropin
modifications: small-loop cysteines carbamidomethylated
B2: the percent activity in data set [2] was 181%. Moreover, the activity with porcine liver membranes was determined as 125%. Besides, in data set [1], the “% Weight Gain Mean” value is 13.5%. The “percentage of monomer recovered” value in data set [3] is given as “higher percentage of monomer recovered”. Also, the “recovery of rpST monomer” value in data set [4] is reported as “much greater”.

B3: Non-derivatized Zn-rpST: zinc form of non-derivatized recombinant porcine somatotropin (protein, UniProt P01248 27-216, looked up)
Somatotropin: B1 Somatotropin
modifications: zinc form
notes: zinc form of non-derivatized recombinant porcine somatotropin
Consider B3, for which, in data set [1], the “% Weight Gain Mean” value came out at 17.1% and the “% Relative Bioactivity” value is given as 74%.

B4: Dialyzed Zn-rpST: dialyzed zinc recombinant porcine somatotropin (protein, UniProt P01248 27-216, looked up)
Somatotropin: B1 Somatotropin
modifications: zinc form
notes: dialyzed zinc recombinant porcine somatotropin
Regarding B4, in data set [1], the “% Weight Gain Mean” value is listed as 14.4% and the “% Relative Bioactivity” value stood at 62%.

B5: Small-loop derivatized Zn-RpST: zinc form of small-loop derivatized recombinant porcine somatotropin (protein, UniProt P01248 27-216, looked up)
Somatotropin: B1 Somatotropin
modifications: zinc form; small-loop cysteines carbamidomethylated
notes: zinc form of small-loop derivatized recombinant porcine somatotropin
In the case of B5, in data set [1], the “% Weight Gain Mean” value was 13.5% and the “% Relative Bioactivity” value worked out at 58%.

B6: non-derivatized rpST: unmodified recombinant porcine somatotropin produced in E. coli ATCC 53031 (protein, UniProt P01248 27-216, looked up)
Somatotropin: B1 Somatotropin
modifications: E. coli recombinant
With B6, the percent activity entry in data set [2] is listed as “about 75%”. For the same molecule, the activity with porcine liver membranes came out at 100%. Further, the “% Weight Gain Mean” value in data set [1] is 14.4%.
